In patent US20120034160A1 (AbbVie / Abbott, published 2012):
“And” between values parts separate entries of the source, which are not always exact repeats. Equal values may be shown once.

Key:
Recombinant Human IL-1β [1] = target: T1, Recombinant Human IL-1β (human, UniProt P01584 117-269); assay: Biacore SPR
T1 construct: Bought reagent; also called IL-1B
Procedure: (§1) The BIACORE assay (Biacore, Inc, Piscataway, N.J.) determines the affinity of antibodies or DVD-Ig with kinetic measurements of on-rate and off-rate constants. Binding of antibodies or DVD-Ig to a target antigen (for example, a purified recombinant target antigen) was determined by surface plasmon resonance-based measurements with a Biacore® 1000 or 3000 instrument (Biacore® AB, Uppsala, Sweden) using running HBS-EP (10 mM HEPES [pH 7.4], 150 mM NaCl, 3 mM EDTA, and 0.005% surfactant P20) at 25° C. All chemicals were obtained from Biacore® AB (Uppsala, Sweden) or otherwise from a different source as described in the text. For example, approximately 5000 RU of goat anti-mouse IgG, (Fcγ), fragment specific polyclonal antibody (Pierce Biotechnology Inc, Rockford, Ill.) diluted in 10 mM sodium acetate (pH 4.5) was directly immobilized across a CM5 research grade biosensor chip using a standard amine coupling kit according to manufacturer's instructions and procedures at 25 μg/ml. Unreacted moieties on the biosensor surface were blocked with ethanolamine. Modified carboxymethyl dextran surface in flowcell 2 and 4 was used as a reaction surface. Unmodified carboxymethyl dextran without goat anti-mouse IgG in flow cell 1 and 3 was used as the reference surface. For kinetic analysis, rate equations derived from the 1:1 Langmuir binding model were fitted simultaneously to association and dissociation phases of all eight injections (using global fit analysis) with the use of Biaevaluation 4.0.1 software. Purified antibodies or DVD-Ig were diluted in HEPES-buffered saline for capture across goat anti-mouse IgG specific reaction surfaces. Antibodies or DVD-Ig to be captured as a ligand (25 μg/ml) were injected over reaction matrices at a flow rate of 5 μl/min. The association and dissociation rate constants, kₒₙ (M⁻¹s⁻¹) and koff (s⁻¹) were determined under a continuous flow rate of 25 μl/min. Rate constants were derived by making kinetic binding measurements at different antigen concentrations ranging from 10−200 nM. The equilibrium dissociation constant (M) of the reaction between antibodies or DVD-Igs and the target antigen was then calculated from the kinetic rate constants by the following formula: KD=koff/kₒₙ. Binding was recorded as a function of time and kinetic rate constants are calculated.

Recombinant Human IL-1β [2] = target: T1, Recombinant Human IL-1β; assay: cell-based or functional assay
Recombinant Human IL-1β [3] = target: T2, Recombinant Human IL-1β (human, UniProt P01584 117-269); assay: Biacore SPR
T2 construct: bought reagent; also called IL-1B
Procedure: as §1

| Binder | Kd (Recombinant Human IL-1β [1]) | koff (Recombinant Human IL-1β [1]) | kon (Recombinant Human IL-1β [1]) | IL-1β Neutralization Assay EC50 (Recombinant Human IL-1β [2]) | Kd (Recombinant Human IL-1β [3]) | koff (Recombinant Human IL-1β [3]) | kon (Recombinant Human IL-1β [3]) |
| --- | --- | --- | --- | --- | --- | --- | --- |
| AB270 (antibody, human IgG1, kappa, V domains shown, Parent antibody) VH: EVQLQESGPGLVKPSETLSLTCTVSGFSLSDYGVSWIRQPPGKGLEWLGLIWGGGDTYYNSPLKSRLTISKDNSKSQVSLKLSSVTAADTAVYYCAKQRTLWGYDLYGMDYWGQGTLVTVSS VL: DTQVTQSPSSLSASVGDRVTITCITSTDIDVDMNWYQQKPGKPPKLLISQGNTLRPGVPSRFSSSGSGTDFTFTISSLQPEDFATYYCLQSDNLPLTFGQGTKLEIKR | 0.08 nM | 0.00053 s⁻¹ | 6.6e+06 M⁻¹ s⁻¹ | 0.245 nM | – | – | – |
| AB271 (antibody, human IgG1, kappa, V domains shown, constants by vectors: V1 wt hIgG1, V2 kappa) VH: EVQLQESGPGLVKPSETLSLTCTVSGFSLSDYGVSWIRQPPGKGLEWLGLIWGGGDTYYNSPLKSRLTISKDNSKSQVSLKLSSVTAADTAVYYCAKQRTLWGYDLYGMDYWGQGTLVTVSS VL: DTVVTQSPAFLSVTPGEKVTITCITSTDIDVDMNWYQQKPDQPPKLLISQGNTLRPGVPSRFSSSGSGTDFTFTISSLEAEDAATYYCLQSDNLPLTFGQGTKLEIKR | – | – | – | – | 0.11 nM and 0.096 nM | 0.00055 s⁻¹ and 0.00057 s⁻¹ and 0.00051 s⁻¹ | 5.1e+06 M⁻¹ s⁻¹ and 6e+06 M⁻¹ s⁻¹ and 4.6e+06 M⁻¹ s⁻¹ |
| AB270 (antibody, human IgG1, kappa, V domains shown, constants by vectors: V1 wt hIgG1, V2 kappa) VH: EVQLQESGPGLVKPSETLSLTCTVSGFSLSDYGVSWIRQPPGKGLEWLGLIWGGGDTYYNSPLKSRLTISKDNSKSQVSLKLSSVTAADTAVYYCAKQRTLWGYDLYGMDYWGQGTLVTVSS VL: DTQVTQSPSSLSASVGDRVTITCITSTDIDVDMNWYQQKPGKPPKLLISQGNTLRPGVPSRFSSSGSGTDFTFTISSLQPEDFATYYCLQSDNLPLTFGQGTKLEIKR | – | – | – | – | 0.089 nM and 0.082 nM and 0.08 nM | 0.00058 s⁻¹ and 0.00055 s⁻¹ and 0.00053 s⁻¹ | 6.5e+06 M⁻¹ s⁻¹ and 6.7e+06 M⁻¹ s⁻¹ and 6.6e+06 M⁻¹ s⁻¹ |

Results, then the binder that gave them:

| Kd (Recombinant Human IL-1β [1]) | koff (Recombinant Human IL-1β [1]) | kon (Recombinant Human IL-1β [1]) | IL-1β Neutralization Assay EC50 (Recombinant Human IL-1β [2]) | Kd (Recombinant Human IL-1β [3]) | koff (Recombinant Human IL-1β [3]) | kon (Recombinant Human IL-1β [3]) | Binder |
| --- | --- | --- | --- | --- | --- | --- | --- |
| – | – | – | – | 0.14 nM and 0.12 nM | 0.00053 s⁻¹ and 0.00066 s⁻¹ and 0.00056 s⁻¹ | 3.9e+06 M⁻¹ s⁻¹ and 5.3e+06 M⁻¹ s⁻¹ and 4e+06 M⁻¹ s⁻¹ | AB272 (antibody, human IgG1, kappa, V domains shown, constants by vectors: V1 wt hIgG1, V2 kappa) VH: EVQLVESGGGLVQPGGSLRLSCAVSGFTLSDYGVSWIRQAPGKGLEWLGLIWGGGDTYYNSPLKSRLTISKDNSKSTVYLQMNSLRAEDTAVYYCAKQRTLWGYDLYGMDYWGQGTLVTVSS VL: ETTVTQSPSSLSASVGDRVTITCITSTDIDVDMNWYQQKPGKPPKLLISQGNTLRPGVPSRFSSSGSGTDFTFTISSLQPEDFATYYCLQSDNLPLTFGQGTKLEIKR |
| 0.14 nM | 0.00056 s⁻¹ | 4e+06 M⁻¹ s⁻¹ | 0.298 nM | – | – | – | AB272 (antibody, human IgG1, kappa, V domains shown, Parent antibody) VH: EVQLVESGGGLVQPGGSLRLSCAVSGFTLSDYGVSWIRQAPGKGLEWLGLIWGGGDTYYNSPLKSRLTISKDNSKSTVYLQMNSLRAEDTAVYYCAKQRTLWGYDLYGMDYWGQGTLVTVSS VL: ETTVTQSPSSLSASVGDRVTITCITSTDIDVDMNWYQQKPGKPPKLLISQGNTLRPGVPSRFSSSGSGTDFTFTISSLQPEDFATYYCLQSDNLPLTFGQGTKLEIKR |
| 0.11 nM | 0.00051 s⁻¹ | 4.6e+06 M⁻¹ s⁻¹ | 0.308 nM | – | – | – | AB271 (antibody, human IgG1, kappa, V domains shown, Parent antibody) VH: EVQLQESGPGLVKPSETLSLTCTVSGFSLSDYGVSWIRQPPGKGLEWLGLIWGGGDTYYNSPLKSRLTISKDNSKSQVSLKLSSVTAADTAVYYCAKQRTLWGYDLYGMDYWGQGTLVTVSS VL: DTVVTQSPAFLSVTPGEKVTITCITSTDIDVDMNWYQQKPDQPPKLLISQGNTLRPGVPSRFSSSGSGTDFTFTISSLEAEDAATYYCLQSDNLPLTFGQGTKLEIKR |
